Substrate in the data set: NCCCNCCCCNCCCN
The data set can be described thus: purified protein, by the assay type. The note with it: other: compound as substrate, Hepes 50 mM, pH 7.5, 37 °C.

B1: murine SMOX (Mus musculus) (protein)
chain: MQSCESSGDSADDPLSRGLRRRGQPRVVVIGAGLAGLAAARALLEQGFTDVTVLEASSHIGGRVQSVRLGDTTFELGATWIHGSHGNPIYQLAEANGLLEETTDGERSVGRISLYSKNGVACYLTNRGCRIPKDVVEEFSDLYNEVYNMTQEFFRHGKPVNAESQNSVGVFTREKVRNRIRDDPDDTEATKRLKLAMIQQYLKVESCESSSHSIDEVSLSAFGEWTEIPGAHHIIPSGFMRVVELLAEGIPPHVIQLGKPVRCIHWDQASAHPRGPEIEPRGEGDHNHDTGEGGQSGENPQQGRWDEDEPWPVVVECEDCEVIPADHVIVTVSLGVLKRQYTSFFRPCLPTEKVAAIHRLGIGTTDKIFLEFEEPFWGPECNSLQFVWEDEAESCTLTYPPELWYRKICGFDVLYPPERYGHVLSGWICGEEALVMERCDDEAVAEICTEMLRQFTGNPNIPKPRRILRSAWGSNPYFRGSYSYTQVGSSGADVEKLAKPLPYTESSKTAPMQVLFSGEATHRKYYSTTHGALLSGQREAARLIEMYRDLFQQGP
B1: the Michaelis constant (Km) turned out to be 495 µM.

The values are drawn from publication PMC6407594.
